Here are results for two molecules from patent US20050154189A1.

The target of the assay is Soluble CD28-Ig (human), P10747. The assay can be described thus: two-colour FACS profile on transfected cells; score of preference for CD28-Ig over CTLA-4-Ig vs WT hB7-1.

B1: Round 2 CD28A12-5 (ligand)
chain: ITPKSVTKRVKETVMLSCDYNTSTEELTSLRIYWRKDSKMXLAILPGKVQVWPEYKNRTITDMNDNLRIVILALRLSDSGTYTCVIQKPDLKGAYKLEHLTSVRLMIRADFPVPTINDLGNPSPNIRRLICSTSGGFPRPHLYWLENGEELNATNTTVSQDPGTELYMISSELDFNVTNNHSIVCLIKYGELLVSQIFPWSKPKQEPPIDQLPFWVIIPVSGALVLTAVVLYCLACRHVARWKRTRRNEETVGTERLSPIYLGSAQSSG
modifications: not fully specified; X: residue not identified in the source; ends and bridges not checked; also: glycosylated, sites not given here
Regarding B1, the Binding Score came to 1.

B2: Round 2 CD28A4-9 (ligand)
chain: ITPKSVTKRVKETVMLSCDYNTSTEKLTSLRIYWQKDSKMVLAILPGKVQVWPEYKNRTITDMNDNPRIVILALRLSDSGTYTCVIQKPVLKGAYKLEHLTSVRLMIRADFPVPTINDLGNPSPNIRRLICSTSGGFPRPHLYWLENGEELNATNTTVSQDPETKLYMISSELDFNVTNNHSIVCLIKYGELSVSQIFPWSKPKQEPPIDQLPFWVIIPVSGALVLTAVVLYCPACRHVARWKRTRRNEETVGTERLSPIYLGSAQSRAEVPSLSX
modifications: not fully specified; X: residue not identified in the source; ends and bridges not checked
Turning to B2, the Binding Score amounted to 1.
